# Laboratory results reported in IntAct's records for PubMed 17304241.
# B1: Protein zyg-11 homolog B (Homo sapiens), Q9C0D3 (parent)
# chain: MPEDQAGAAMEEASPYSLLDICLNFLTTHLEKFCSARQDGTLCLQEPGVFPQEVADRLLRTMAFHGLLNDGTVGIFRGNQMRLKRACIRKAKISAVAFRKAFCHHKLVELDATGVNADITITDIISGLGSNKWIQQNLQCLVLNSLTLSLEDPYERCFSRLSGLRALSITNVLFYNEDLAEVASLPRLESLDISNTSITDITALLACKDRLKSLTMHHLKCLKMTTTQILDVVRELKHLNHLDISDDKQFTSDIALRLLEQKDILPNLVSLDVSGRKHVTDKAVEAFIQQRPSMQFVGLLATDAGYSEFLTGEGHLKVSGEANETQIAEALKRYSERAFFVREALFHLFSLTHVMEKTKPEILKLVVTGMRNHPMNLPVQLAASACVFNLTKQDLAAGMPVRLLADVTHLLLKAMEHFPNHQQLQKNCLLSLCSDRILQDVPFNRFEAAKLVMQWLCNHEDQNMQRMAVAIISILAAKLSTEQTAQLGTELFIVRQLLQIVKQKTNQNSVDTTLKFTLSALWNLTDESPTTCRHFIENQGLELFMRVLESFPTESSIQQKVLGLLNNIAEVQELHSELMWKDFIDHISSLLHSVEVEVSYFAAGIIAHLISRGEQAWTLSRSQRNSLLDDLHSAILKWPTPECEMVAYRSFNPFFPLLGCFTTPGVQLWAVWAMQHVCSKNPSRYCSMLIEEGGLQHLYNIKDHEHTDPHVQQIAVAILDSLEKHIVRHGRPPPCKKQPQARLN
# Variants of: B1
# Conditions: with eloc_human ELOC
row,Variant,effect of a mutation on the interaction
1,L18S,disrupting interaction
2,C22S,disrupting interaction
